Assay results from US20230287051A1, “INHIBITORS OF COMPLEMENT FACTOR C3 AND THEIR MEDICAL USES” (ZP SPV 3 K/S, priority 2020, published 2023).
Numbered stars: 1 amine (or outer) side, 2 acyl side, 3 side chain; on linkers, the order of the positions; unused ones are H or OH. Bridge positions count the residues as written; N and C are the ends. Square brackets hold non-standard residues; d marks the D form. Side chains are listed from the residue outwards. Peptide text beside a SMILES is read from it. * marks the point of attachment. Trp(1-Me) = Cn1cc(C[C@H](N)C(=O)O)c2ccccc21; C18 diacid = O=C(O)CCCCCCCCCCCCCCCCC(=O)*; γGlu = O=C(O)[C@H](CCC(=O)[*:2])N[*:1]; AEEA = NCCOCCOCC(=O)O; CH2 = C([*:1])[*:2]; Sar = CNCC(=O)O

B1: Compound 2 (peptide)
peptide: Ac-SEFCI[Trp(1-Me)]QDWGEHRC[Sar]EGE[AEEA][AEEA]K([γGlu-Gly-γGlu-C18 diacid])-NH2
modifications: bridge 4-14 via methylene thioacetal (-S-CH2-S-)
notes: Synthetic compstatin analogue; also called Comp No 2
B2: Compound 9 (peptide)
peptide: Ac-SEFCI[Trp(1-Me)]QDW[Sar]EHRCTEGE[AEEA][AEEA]K([γGlu-Gly-γGlu-C18 diacid])-NH2
modifications: bridge 4-14 via methylene thioacetal ‑S‑CH2‑S‑ (CH2I2, DIPEA)
notes: Synthetic compstatin analogue; also called Comp No 9
B3: Compound 7 (peptide)
peptide: Ac-SEFCI[Trp(1-Me)]QDW[Sar]EHRC[Sar]E[AEEA][AEEA]K([γGlu-Gly-γGlu-C18 diacid])-NH2
modifications: bridge 4-14 via methylene thioacetal (-S-CH2-S-)
notes: Synthetic compstatin analogue; also called Comp No 7
B4: Compound 10 (peptide)
peptide: Ac-SEFCI[Trp(1-Me)]QDW[Sar]EHRCTE[AEEA][AEEA]K([γGlu-Gly-γGlu-C18 diacid])-NH2
modifications: bridge 4-14 via methylene thioacetal (-S-CH2-S-)
notes: Synthetic compstatin analogue; also called Comp No 10
B5: Compound 28 (peptide)
peptide: Ac-GQSAFCI[Trp(1-Me)]QDW[Sar]EHRCTEGE[AEEA][AEEA]K([γGlu-Gly-γGlu-C18 diacid])-NH2
modifications: bridge 6-16 via methylene thioacetal (-S-CH2-S-)
notes: Synthetic compstatin analogue; also called Comp No 28
B6: Compound 15 (peptide)
peptide: Ac-[dY]ICI[Trp(1-Me)]QDW[Sar]EHRCTEGE[AEEA]ESK([γGlu-C18 diacid])-NH2
modifications: bridge 3-13 via methylene thioacetal (-S-CH2-S-)
notes: Synthetic compstatin analogue; also called Comp No 15
B7: Compound 19 (peptide)
peptide: EGSEFCIWQDWGEHRCTEGE
modifications: N-terminal [15-Carboxy-pentadecanoyl]; 1-Me-Trp at 8; Cys6 and Cys16 bridged by methylene thioacetal (-S-CH2-S-); Sar at 12; C-terminal amide
notes: Synthetic compstatin analogue; also called Comp No 19
B8: Compound 20 (peptide)
peptide: Ac-EGSEFCI[Trp(1-Me)]QDW[Sar]EHRCTEGE[AEEA]ESK([γGlu-C18 diacid])-NH2
modifications: bridge 6-16 via methylene thioacetal (-S-CH2-S-)
notes: Synthetic compstatin analogue; also called Comp No 20
B9: Compound 27 (peptide)
peptide: Ac-EGESGFCI[Trp(1-Me)]QDW[Sar]EHRCTEGE[AEEA][AEEA]K([γGlu-Gly-γGlu-C18 diacid])-NH2
modifications: bridge 7-17 via methylene thioacetal (-S-CH2-S-)
notes: Synthetic compstatin analogue; also called Comp No 27
B10: Compound 12 (peptide)
peptide: Ac-EFCI[Trp(1-Me)]QDW[Sar]EHRCTEA[AEEA][AEEA]K([γGlu-Gly-γGlu-C18 diacid])-NH2
modifications: bridge 3-13 via methylene thioacetal (-S-CH2-S-)
notes: Synthetic compstatin analogue; also called Comp No 12
B11: Compound 24 (peptide)
peptide: Ac-ESEQVFCI[Trp(1-Me)]QDW[Sar]EHRCTEGE[AEEA][AEEA]K([γGlu-Gly-γGlu-C18 diacid])-NH2
modifications: bridge 7-17 via methylene thioacetal (-S-CH2-S-)
notes: Synthetic compstatin analogue; also called Comp No 24
B12: Compound 23 (peptide)
peptide: Ac-ESQVFCI[Trp(1-Me)]QDW[Sar]EHRCTEGE[AEEA][AEEA]K([γGlu-Gly-γGlu-C18 diacid])-NH2
modifications: bridge 6-16 via methylene thioacetal (-S-CH2-S-)
notes: Synthetic compstatin analogue; also called Comp No 23
B13: Compound 29 (peptide)
peptide: H-ESGVFCI[Trp(1-Me)]QDW[Sar]EHRCTEGE[AEEA][AEEA]K([γGlu-Gly-γGlu-C18 diacid])-NH2
modifications: bridge 6-16 via methylene thioacetal (-S-CH2-S-)
notes: Synthetic compstatin analogue; also called Comp No 29
B14: Compound 25 (peptide)
peptide: Ac-SEQAFCI[Trp(1-Me)]QDW[Sar]EHRCTEGE[AEEA][AEEA]K([γGlu-Gly-γGlu-C18 diacid])-NH2
modifications: bridge 6-16 via methylene thioacetal (-S-CH2-S-)
notes: Synthetic compstatin analogue; also called Comp No 25; comp 25
B15: Compound 26 (peptide)
peptide: Ac-SKQEFCI[Trp(1-Me)]QDW[Sar]EHRCTEGE[AEEA][AEEA]K([γGlu-Gly-γGlu-C18 diacid])-NH2
modifications: bridge 6-16 via methylene thioacetal (-S-CH2-S-)
notes: Synthetic compstatin analogue; also called Comp No 26
B16: Compound 1 (peptide)
peptide: SEFCIWQDWGEHRCTGAES
modifications: N-terminal acetyl; 1-Me-Trp at 6; Cys4 and Cys14 bridged by methylene thioacetal (-S-CH2-S-); C-terminal amide
notes: Synthetic compstatin analogue; also called Comp No 1

Experiments:
[1] = test system: classical complement pathway; assay: In vitro haemolysis assay (inhibition of classical complement pathway); assay type: cell-based; details: human serum, sensitized sheep RBC, 30 minutes at 37° C., absorbance at 405 nm, n=>2; read-out: IC50, inhibition of hemolysis
Protocol: The in vitro effect of some of the compounds described herein was assessed by measuring their inhibitory effect of the classical complement pathway in a haemolysis assay.
Briefly, compounds described herein and reference compounds were dissolved in DMSO and diluted in Tris/Casein Assay Buffer (10 mM Tris, 145 mM NaCl, 0.5 mM MgCl2, 0.15 mM CaCl2, and 0.1% W/V casein, adjusted to pH 7.4) as 9-point serial dilutions in a 96-well plate. Sensitized sheep red blood cells (RBC) coated with rabbit anti-sheep erythrocyte antiserum (Complement Technology, Inc., TX, USA) were washed in Tris/asein Assay Buffer. 50 μL from each well of diluted compound was added to a 96-well plate containing 50 μL diluted human serum (Complement Technology, Inc., TX, USA) and incubated for 15 minutes at room temperature. The serum dilution factor was optimized for every serum batch to obtain 70-90% of maximal haemolysis using the protocol. Then 50 μL sensitized sheep RBCs were added to all wells ([…]).
After 30 minutes of incubation at 37° C. with gentle agitation, the reaction was stopped by addition of 50 μL Tris STOP Buffer per well (10 mM EDTA, 10 mM Tris, 145 mM NaCl adjusted to pH 7.4). The RBCs were then removed by centrifugation and the resulting supernatant measured for hemolysis by absorbance at 405 nm.
The response was normalized relative to a positive and negative control (vehicle) to calculate the IC50 (nM) from the concentration response curve using the 4-parameter logistic (4PL) nonlinear model for curve fitting (Table 2). All values are based on n=>2 independent determinations.

Human C3 = biological target: T1, Human C3 (Homo sapiens, UniProt P01024); assay: Affinity measurement by surface plasmon resonance with immobilized C3; details: SPR, immobilized human C3, 25° C., 1:1 Langmuir binding model, n=>2
T1 construct: purchased Complement tech A113c
Protocol: (§1) Surface plasmon resonance (SPR) was used to characterize peptides with respect to their binding affinity (Kd) for C3.
For interaction experiments, a multi-cycle experiment approach was used and performed using a BiacoreX100™ instrument (GE Healthcare) at 25° C. Peptides were injected in increasing concentration series (5 different concentrations and buffer reference) for 180 seconds at a flow rate of 30 μL/min in a buffer consisting of 50 mM Tris buffer at pH 7.4, with 150 mM NaCl and 0.05% Tween20. This was followed by a dissociation period for 10 min. The C3 surface was regenerated between runs by two consecutive injections of 3 M MgCl2 each for 45 seconds.
(§2) Sensorgrams were double-referenced (reference surface, blanks) prior to analysis of the kinetic profiles by globally fitting data to a 1:1 Langmuir binding model to obtain association and dissociation rates for calculation of the equilibrium dissociation constant Kd (Table 3). Each peptide was tested at in at least 2 independent experiments.

[2] = biological target: T2, Human C3 (Complement tech cat #A113c) (human, UniProt P01024 23-1663); assay: cell-based or functional assay
[3] = biological target: T2, Human C3 (Complement tech cat #A113c); assay: SPR (Biacore X100, 25 C), human C3 amine-coupled on CM5 chip, peptide as analyte, 1:1 Langmuir fit
Protocol: as §1
For interaction experiments, a multi-cycle experiment approach was used and performed using a BiacoreX100™ instrument (GE Healthcare) at 25° C. Peptides were injected in increasing concentration series (5 different concentrations and buffer reference) for 180 seconds at a flow rate of 30 μL/min in a buffer consisting of 50 mM Tris buffer at pH 7.4, with 150 mM NaCl and 0.05% Tween20. This was followed by a dissociation period for 10 min.
as §2

T2 sequence (P01024 23-1663 limits assumed): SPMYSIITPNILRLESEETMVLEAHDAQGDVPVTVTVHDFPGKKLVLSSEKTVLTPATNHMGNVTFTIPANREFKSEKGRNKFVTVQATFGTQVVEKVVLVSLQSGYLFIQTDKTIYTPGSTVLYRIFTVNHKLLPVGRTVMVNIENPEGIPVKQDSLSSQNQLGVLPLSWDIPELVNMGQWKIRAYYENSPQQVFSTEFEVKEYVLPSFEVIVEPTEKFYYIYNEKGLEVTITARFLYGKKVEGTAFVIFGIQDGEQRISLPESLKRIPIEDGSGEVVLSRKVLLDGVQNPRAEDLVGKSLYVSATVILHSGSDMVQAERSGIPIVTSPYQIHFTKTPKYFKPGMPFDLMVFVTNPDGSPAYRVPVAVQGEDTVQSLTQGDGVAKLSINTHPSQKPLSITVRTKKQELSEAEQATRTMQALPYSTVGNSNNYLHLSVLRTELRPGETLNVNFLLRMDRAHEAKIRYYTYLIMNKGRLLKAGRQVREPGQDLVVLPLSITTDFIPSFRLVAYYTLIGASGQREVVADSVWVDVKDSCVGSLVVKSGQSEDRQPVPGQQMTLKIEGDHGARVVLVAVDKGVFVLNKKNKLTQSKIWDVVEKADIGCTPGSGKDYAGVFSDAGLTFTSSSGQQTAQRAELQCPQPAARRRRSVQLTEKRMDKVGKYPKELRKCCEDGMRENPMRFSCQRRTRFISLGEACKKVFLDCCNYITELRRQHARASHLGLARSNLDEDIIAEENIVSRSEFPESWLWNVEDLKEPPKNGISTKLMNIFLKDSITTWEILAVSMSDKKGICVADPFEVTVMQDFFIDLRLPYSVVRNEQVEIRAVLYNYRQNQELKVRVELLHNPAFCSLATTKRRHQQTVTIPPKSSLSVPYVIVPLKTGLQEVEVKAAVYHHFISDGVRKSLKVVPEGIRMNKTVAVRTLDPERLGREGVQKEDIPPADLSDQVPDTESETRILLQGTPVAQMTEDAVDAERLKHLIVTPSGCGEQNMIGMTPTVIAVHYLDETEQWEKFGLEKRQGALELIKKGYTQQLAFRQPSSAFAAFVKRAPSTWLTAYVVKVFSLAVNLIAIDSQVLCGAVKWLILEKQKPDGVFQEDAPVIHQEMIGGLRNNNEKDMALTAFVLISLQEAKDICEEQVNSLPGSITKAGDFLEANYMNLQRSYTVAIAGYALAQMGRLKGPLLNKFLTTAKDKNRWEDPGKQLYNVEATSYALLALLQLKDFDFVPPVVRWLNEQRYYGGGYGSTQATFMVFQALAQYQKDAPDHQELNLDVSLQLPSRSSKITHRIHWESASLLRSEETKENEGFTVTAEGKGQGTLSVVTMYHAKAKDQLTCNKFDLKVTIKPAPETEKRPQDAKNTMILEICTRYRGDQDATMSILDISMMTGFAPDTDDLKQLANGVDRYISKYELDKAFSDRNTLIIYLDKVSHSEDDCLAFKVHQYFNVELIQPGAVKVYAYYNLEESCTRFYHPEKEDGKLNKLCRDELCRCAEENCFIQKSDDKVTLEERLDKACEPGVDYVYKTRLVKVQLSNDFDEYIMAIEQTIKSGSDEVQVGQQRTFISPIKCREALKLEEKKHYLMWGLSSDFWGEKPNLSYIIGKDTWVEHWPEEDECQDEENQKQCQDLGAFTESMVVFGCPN

Row | Molecule | IC50 [1] [nM] | Kd (Human C3) [nM] | IC50 [nM], in vitro inhibition of hemolysis (classical complement pathway; human serum, sensitized sheep RBC) [2] [nM] | Kd [3] [nM]
1 | CC[C@H](C)[C@@H]1NC(=O)[C@@H](NC(=O)[C@H](Cc2ccccc2)NC(=O)[C@H](C)NC(=O)[C@H](CO)NC(=O)[C@H](CCC(N)=O)NC(=O)CNC(C)=O)CSCSC[C@@H](C(=O)N[C@H](C(=O)N[C@@H](CCC(=O)O)C(=O)NCC(=O)N[C@@H](CCC(=O)O)C(=O)NCCOCCOCC(=O)NCCOCCOCC(=O)N[C@@H](CCCCNC(=O)CC[C@H](NC(=O)CNC(=O)CC[C@H](NC(=O)CCCCCCCCCCCCCCCCC(=O)O)C(=O)O)C(=O)O)C(N)=O)[C@@H](C)O)NC(=O)[C@H](CCCNC(=N)N)NC(=O)[C@H](Cc2c[nH]cn2)NC(=O)[C@H](CCC(=O)O)NC(=O)CN(C)C(=O)[C@H](Cc2c[nH]c3ccccc23)NC(=O)[C@H](CC(=O)O)NC(=O)[C@H](CCC(N)=O)NC(=O)[C@H](Cc2cn(C)c3ccccc23)NC1=O [Compound 28, Ac-GQSAF[C(1)]I[1-Me-Trp]QDW[Sar]EHR[C(1)]TEGE[Peg3][Peg3]-K([17-Carboxy-heptadecanoyl][yGlu]G[yGlu])-NH2] (Ac-GQSAFCI[Trp(1-Me)]QDW[Sar]EHRCTEGE[AEEA][AEEA]K([γGlu-Gly-γGlu-C18 diacid])-NH2; linker 6-16 via CH2) | < 100 | 15 |  | 
2 | Ac-SEF[C(1)]I[1-Me-Trp]QDWGEHR[C(1)]TEGE[Peg3]ES-K([17-Carboxy-heptadecanoyl]-[yGlu]-NH2 [Compound 5] | < 500 |  |  | 
3 | B1 |  |  | < 500 | 54
4 | B2 |  |  | < 250 | 
5 | B3 |  |  | < 500 | 21
6 | B4 |  |  | < 250 | 
7 | B5 |  |  | < 100 | 
8 | B6 |  |  | < 250 | 16
9 | B7 |  |  | < 250 | 
10 | B8 |  |  | < 250 | 
11 | B9 |  |  | < 100 | 
12 | B10 |  |  | < 100 | 12
13 | B11 |  |  | < 100 | 13
14 | B12 |  |  | < 100 | 14
15 | B13 |  |  | < 100 | 
16 | B14 |  |  | < 100 | 9.1
17 | B15 |  |  | < 100 | 11
18 | B16 |  |  | < 100 | 25
